Where two headings read alike, the source gives them in different places.
Tests used:
[1] = set-up: species or system CD-1 mice; details: mouse, in vivo
Experimental: (§1) Male CD-1 mice of 8 to 9 weeks of age (18-20 g body weight) were acclimatized for 7 days before being enrolled into the study. Mice were weighed and dosed at 5 μL of dosing material per 20 g of body weight. […] Animals were anesthetized and held with the dorsal end facing down. Dosing materials were administered at a rate of ˜1 μL/10 seconds split equally through both nostrils. Total dosing time ranged from 1.8 to 2.3 minutes. After a nominal 10 minutes post-dose, animals were sacrificed followed by blood collection, perfusion, and tissue collection. The olfactory bulbs were included in the collection of the brain tissues. All tissues were stored at nominal −80° C. until assay. Perfusate contains: 1×PBS pH 7.4, +2.7% w/v BSA+100 U/mL heparin. […] Read plate at Ex/Em 635/675.

[2] = set-up: species or system CD-1 mice; details: mouse, in vivo, 10.5 mg/kg
Experimental: as §1, with “heparin. Lung/Liver/Kidney/Spleen. […] To evaluate recovery and matrix differences between the calibration matrices and study test samples, a spiking recovery experiment was performed (Table 2). […] The RFU correction factor was determined by dividing the response of each analyte spiked into BALB-c lysates (preparation procedures described below) by the response of each analyte spiked into CD-1 homogenate and then extracted. For kidney and liver matrices, there was enough material available to evaluate spiking recovery at two different levels.” for “heparin.”, “635/675 4. […]” for “635/675.”

Sialong: polysialyated insulin conjugate by N-terminal (B-chain) aldehyde conjugation using 15 kDa CAO; tested labelled with AF-647 (Sialong^AF647)
Plasma % Dose ([1]; 2.1 mg/kg): 0.0 % Dose
Plasma % Dose ([1]; 10.5 mg/kg): 0.01 % Dose
Lung % Dose [2]: 0.01 % Dose

— patent US10188739B2 (Xenetic Biosciences, Inc., priority 2014, dated 2019)
